Laboratory results as given in the supplement of paper PMC11246515.
± gives the standard deviation of the averaged measurements.

Test: total protein half-life in vivo (active degradation + dilution); higher = more stable protein
[1] = E. coli NCM3722 delta-clpP delta-lon delta-hslV, growth: N-lim chemostat, doubling time 6 h
[2] = E. coli NCM3722 delta-clpP, growth: N-lim chemostat, doubling time 6 h
[3] = E. coli NCM3722 delta-hslV, growth: N-lim chemostat, doubling time 6 h
[4] = E. coli NCM3722 delta-smpB, growth: N-lim chemostat, doubling time 6 h
[5] = wild type E. coli NCM3722, growth: C-lim chemostat, doubling time 3 h
[6] = wild type E. coli NCM3722, growth: C-lim chemostat, doubling time 6 h
[7] = wild type E. coli NCM3722, growth: C-lim chemostat, doubling time 12 h
[8] = wild type E. coli NCM3722, growth: N-lim chemostat, doubling time 6 h
[9] = wild type E. coli NCM3722, growth: P-lim chemostat, doubling time 6 h
[10] = wild type E. coli NCM3722, growth: P-lim chemostat, doubling time 12 h
[11] = E. coli NCM3722 delta-lon, growth: N-lim chemostat, doubling time 6 h
[12] = wild type E. coli NCM3722, growth: N-lim chemostat, doubling time 12 h

Sequence	total protein half-life in vivo [1] [h]	total protein half-life in vivo [2] [h]	total protein half-life in vivo [3] [h]	total protein half-life in vivo [4] [h]	total protein half-life in vivo [5] [h]	total protein half-life in vivo [6] [h]	total protein half-life in vivo [7] [h]	total protein half-life in vivo [8] [h]	total protein half-life in vivo [9] [h]	total protein half-life in vivo [10] [h]	total protein half-life in vivo [11] [h]	total protein half-life in vivo [12] [h]
MSSDIKIKVQSFGRFLSNMVMPNIGAFIAWGIITALFIPTGWLPNETLAKLVGPMITYLLPLLIGYTGGKLVGGERGGVVGAITTMGVIVGADMPMFLGSMIAGPLGGWCIKHFDRWVDGKIKSGFEMLVNNFSAGIIGMILAILAFLGIGPIVEALSKMLAAGVNFMVVHDMLPLASIFVEPAKILFLNNAINHGIFSPLGIQQSHELGKSIFFLIEANPGPGMGVLLAYMFFGRGSAKQSAGGAAIIHFLGGIHEIYFPYVLMNPRLILAVILGGMTGVFTLTILGGGLVSPASPGSILAVLAMTPKGAYFANIAGVCAAMAVSFVVSAILLKTSKVKEEDDIEAATRRMQDMKAESKGASPLSAGDVTNDLSHVRKIIVACDAGMGSSAMGAGVLRKKIQDAGLSQISVTNSAINNLPPDVDLVITHRDLTERAMRQVPQAQHISLTNFLDSGLYTSLTERLVAAQRHTANEEKVKDSLKDSFDDSSANLFKLGAENIFLGRKAATKEEAIRFAGEQLVKGGYVEPEYVQAMLDREKLTPTYLGESIAVPHGTVEAKDRVLKTGVVFCQYPEGVRFGEEEDDIARLVIGIAARNNEHIQVITSLTNALDDESVIERLAHTTSVDEVLELLAGRK	6.55 ± 0.42	6.42 ± 0.66	6.25 ± 0.23	6.64 ± 0.41	3.35 ± 0.32	6.92 ± 0.54	12.66 ± 0.082	6.4 ± 0.15	6.275 ± 0.059	13.8 ± 1.2		
MSSFQFEQIGVIRSPYKEKFAVPRQPGLVKSANGELHLIAPYNQADAVRGLEAFSHLWILFVFHQTMEGGWRPTVRPPRLGGNARMGVFATRSTFRPNPIGMSLVELKEVVCHKDSVILKLGSLDLVDGTPVVDIKPYLPFAESLPDASASYAQSAPAAEMAVSFTAEVEKQLLTLEKRYPQLTLFIREVLAQDPRPAYRKGEETGKTYAVWLHDFNVRWRVTDAGFEVFALEPR	5 ± 0.19	4.77 ± 0.35	4.77 ± 0.049	5.06 ± 0.3	2.89 ± 0.41	5.88 ± 0.54	9.48 ± 0.38	4.98 ± 0.3	6.19 ± 0.56	13.5 ± 1.7	5.29 ± 0.31	10.1 ± 2.3
MSSHPYVTQQNTPLADDTTLMSTTDLQSYITHANDTFVQVSGYTLQELQGQPHNMVRHPDMPKAAFADMWFTLKKGEPWSGIVKNRRKNGDHYWVRANAVPMVREGKISGYMSIRTRATDEEIAAVEPLYKALNAGRTSKRIHKGLVVRKGWLGKLPSLPLRWRARGVMTLMFILLAAMLWFVAAPVVTYILCALVVLLASACFEWQIVRPIENVAHQALKVATGERNSVEHLNRSDELGLTLRAVGQLGLMCRWLINDVSSQVSSVRNGSETLAKGTDELNEHTQQTVDNVQQTVATMNQMAASVKQNSATASAADKLSITASNAAVQGGEAMTTVIKTMDDIADSTQRIGTITSLINDIAFQTNILALNAAVEAARAGEQGKGFAVVAGEVRHLASRSANAANDIRKLIDASADKVQSGSQQVHAAGRTMEDIVAQVKNVTQLIAQISHSTLEQADGLSSLTRAVDELNLITQKNAELVEESAQVSAMVKHRASRLEDAVTVLH					2.72 ± 0.7							
MSSKEQKTPEGQAPEEIIMDQHEEIEAVEPEASAEQVDPRDEKVANLEAQLAEAQTRERDGILRVKAEMENLRRRTELDIEKAHKFALEKFINELLPVIDSLDRALEVADKANPDMSAMVEGIELTLKSMLDVVRKFGVEVIAETNVPLDPNVHQAIAMVESDDVAPGNVLGIMQKGYTLNGRTIRAAMVTVAKAKA	6.35 ± 0.23	6.61 ± 1.3	5.31 ± 0.46	4.79 ± 0.18	3.024 ± 0.0063	5.43 ± 0.17	9.26 ± 0.18	5.66 ± 0.14	5.26 ± 0.24	10.7 ± 0.15	5.19 ± 0.26	8.74 ± 0.79
MSSKLVLVLNCGSSSLKFAIIDAVNGEEYLSGLAECFHLPEARIKWKMDGNKQEAALGAGAAHSEALNFIVNTILAQKPELSAQLTAIGHRIVHGGEKYTSSVVIDESVIQGIKDAASFAPLHNPAHLIGIEEALKSFPQLKDKNVAVFDTAFHQTMPEESYLYALPYNLYKEHGIRRYGAHGTSHFYVTQEAAKMLNKPVEELNIITCHLGNGGSVSAIRNGKCVDTSMGLTPLEGLVMGTRSGDIDPAIIFHLHDTLGMSVDAINKLLTKESGLLGLTEVTSDCRYVEDNYATKEDAKRAMDVYCHRLAKYIGAYTALMDGRLDAVVFTGGIGENAAMVRELSLGKLGVLGFEVDHERNLAARFGKSGFINKEGTRPAVVIPTNEELVIAQDASRLTA [P0A6A3]	4.23 ± 0.13	6.03 ± 2.6	4.41 ± 0.054	4.28 ± 0.21	3.25 ± 0.17	6.35 ± 0.1	12.1 ± 0.56	4.58 ± 0.21	5.88 ± 0.24	13.1 ± 1.2	4.89 ± 0.78	8.13 ± 0.2
MSSLINNAMSGLNAAQAALNTASNNISSYNVAGYTRQTTIMAQANSTLGAGGWVGNGVYVSGVQREYDAFITNQLRAAQTQSSGLTARYEQMSKIDNMLSTSTSSLATQMQDFFTSLQTLVSNAEDPAARQALIGKSEGLVNQFKTTDQYLRDQDKQVNIAIGASVDQINNYAKQIASLNDQISRLTGVGAGASPNNLLDQRDQLVSELNQIVGVEVSVQDGGTYNITMANGYSLVQGSTARQLAAVPSSADPSRTTVAYVDGTAGNIEIPEKLLNTGSLGGILTFRSQDLDQTRNTLGQLALAFAEAFNTQHKAGFDANGDAGEDFFAIGKPAVLQNTKNKGDVAIGATVTDASAVLATDYKISFDNNQWQVTRLASNTTFTVTPDANGKVAFDGLELTFTGTPAVNDSFTLKPVSDAIVNMDVLITDEAKIAMASEEDAGDSDNRNGQALLDLQSNSKTVGGAKSFNDAYASLVSDIGNKTATLKTSSATQGNVVTQLSNQQQSISGVNLDEEYGNLQRFQQYYLANAQVLQTANAIFDALINIR	3.99 ± 0.38	> 8	> 8	> 8	0.385 ± 0.15	0.323 ± 0.065	0.835 ± 0.28	5.22 ± 0.16				
